Assay results published in patent publication US20220127334A1.

Columns and labels:
[1] = target: Human pancreatic trypsin (Athens Research & Technology, Inc) (human) (UniProt P07477); experiment: cell-based or functional assay
[2] = target: trypsin (Examples 7 and 8, source not stated); experiment: cell-based or functional assay

- IC50 of trypsin inhibition (fluorogenic substrate, enzyme activity) [1]: 3 nM
- IC50 of inhibition of trypsin-induced IL-6 production in BEAS2B cells [2]: 0.4 µg/mL
Substance: human UTI (human urine UTI) (from UniProt P02760 206-352)
